Source: patent EP1655308B1, “Adducts of soluble ovalbumin with trivalent iron polyalcohol complexes and method to produce them” (Tedec-Meiji Farma, S.A., priority 2004, dated 2006)

Experiment: Solubility of the lyophilised adduct at 1 %
Type: physicochemical
Conditions: lyophilised powder, 1 % solution
Experimental: a) Iron - manitol complex: 31.5 g of FeCl3·6H2O are dissolved jointly with 7.9 g of manitol in 400 ml of water. A solution of 18 g of NaOH in 48 ml of water is added under vigorous stirring. It is heated to 95° C, letting it spontaneously cool down to ambient temperature. b) Treated ovalbumin: 37.50 g of commercial ovalbumin in powder form are dispersed under vigorous stirring in 180 ml of water. A solution of 30 g of NaOH in 550 ml of water is heated separately to 65° C. The protein dispersion is added to the alkaline solution and is digested at 65° C for 15 minutes, with the pH being subsequently adjusted to a value between 8.5 - 10 with 6M HCl. While keeping the solution at 50° C and pH 8.5 - 10, Esperase® (NOVO-NORDISK) is added in a quantity of 1 ‰ of the initial albumin (37.5 mg), proteolytically digesting it, under gentle stirring, for 2 hours at 50° C without any pH correction. Once this time has elapsed, the spontaneous pH is 8.5. The solution is heated to 80° C in order to deactivate the remaining enzymatic activity, the pH is adjusted to 10 with 10M NaOH and, when the temperature goes down to 65° C, 2 ml/l of 30 % w/v H2O2 are added. […]

Question: Which 1 % solubility does the source give for “Adduct between treated ovalbumin and iron (III) - manitol complex [Example 1]” here?
Answer: Its 1 % solubility is “limpid”.
